The sequences below were run on Escherichia coli TOP10 (assay: shrunken log2 fold change of peptide-encoding DNA abundance (4.5 h post-induction vs induction); higher = less antimicrobial activity (less host growth inhibition)). Details: time post-induction: 4.5 h; library: site-saturation at positions 5, 18, 19, 20.
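Note: peptides expressed intracellularly from a pBAD plasmid library in pooled LB shake-flask culture, induced with 0.3% L-arabinose, DNA abundance read by NGS, three biological replicates, DESeq2 with apeglm shrinkage.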

Sequence	shrunken log2 fold change
RRIRQRPPRLPRPRPRPTVFPRP	-0.0987
RRIRYRPPRLPRPRPRPIHRPRP	-0.0635
RRIRLRPPRLPRPRPRPWTKPRP	-0.139
RRIRCRPPRLPRPRPRPVNEPRP	-0.266
RRIRTRPPRLPRPRPRPWNHPRP	0.0317
RRIRNRPPRLPRPRPRPYEKPRP	-0.0332
RRIRHRPPRLPRPRPRPMFCPRP	0.0621
RRIRFRPPRLPRPRPRPNRAPRP	0.091
RRIRNRPPRLPRPRPRPMWNPRP	-0.294
RRIRDRPPRLPRPRPRPDKPPRP	0.00451
RRIRHRPPRLPRPRPRPGFHPRP	-0.323
RRIRPRPPRLPRPRPRPCDPPRP	-0.575
RRIRCRPPRLPRPRPRPEDEPRP	0.076
RRIRLRPPRLPRPRPRPCVWPRP	-0.0182
RRIRCRPPRLPRPRPRPSSKPRP	-0.48
RRIRRRPPRLPRPRPRPVFHPRP	0.258
RRIRIRPPRLPRPRPRPWLHPRP	-0.496
RRIRQRPPRLPRPRPRPDSQPRP	0.0234
RRIRKRPPRLPRPRPRPGVYPRP	2.46
RRIRFRPPRLPRPRPRPHDMPRP	-0.292

Sequence	shrunken log2 fold change
RRIRHRPPRLPRPRPRPQPVPRP	0.259
RRIRTRPPRLPRPRPRPCHNPRP	-0.0285
RRIRPRPPRLPRPRPRPRHAPRP	0.502
RRIRVRPPRLPRPRPRPTHAPRP	0.285
RRIRHRPPRLPRPRPRPQFMPRP	-0.864
RRIRARPPRLPRPRPRPRQEPRP	0.503
RRIRWRPPRLPRPRPRPESMPRP	0.636
RRIRQRPPRLPRPRPRPKEMPRP	0.229
RRIRFRPPRLPRPRPRPCCAPRP	-0.0621
RRIRSRPPRLPRPRPRPQGSPRP	-0.00511
RRIRFRPPRLPRPRPRPEDFPRP	0.0568
RRIRKRPPRLPRPRPRPMVVPRP	-0.0348
RRIRCRPPRLPRPRPRPLSRPRP	-0.143
RRIRFRPPRLPRPRPRPQRLPRP	0.106
RRIRLRPPRLPRPRPRPHDPPRP	-0.459
RRIRNRPPRLPRPRPRPTMKPRP	-0.368
RRIRMRPPRLPRPRPRPIANPRP	0.333
RRIRIRPPRLPRPRPRPVMDPRP	-0.184
RRIRMRPPRLPRPRPRPQKPPRP	-0.165
RRIRQRPPRLPRPRPRPDQTPRP	-0.0116

Sequence	shrunken log2 fold change
RRIRQRPPRLPRPRPRPDDPPRP	-0.0062
RRIRWRPPRLPRPRPRPVFHPRP	0.379
RRIRRRPPRLPRPRPRPCEAPRP	0.127
RRIRQRPPRLPRPRPRPHIKPRP	-0.878
RRIRDRPPRLPRPRPRPSFKPRP	-0.0471
RRIRYRPPRLPRPRPRPDDGPRP	0.0672
RRIRERPPRLPRPRPRPDTKPRP	-0.00108
RRIRCRPPRLPRPRPRPYTKPRP	-0.321
RRIRFRPPRLPRPRPRPWSHPRP	-0.843
RRIRPRPPRLPRPRPRPWRGPRP	0.344
RRIRIRPPRLPRPRPRPSKTPRP	0.0676
RRIRMRPPRLPRPRPRPILYPRP	-0.0871
RRIRERPPRLPRPRPRPDGLPRP	0.0424
RRIRVRPPRLPRPRPRPAHFPRP	0.31
RRIRLRPPRLPRPRPRPHNAPRP	1.08
RRIRYRPPRLPRPRPRPVHAPRP	-0.13
RRIRARPPRLPRPRPRPRRIPRP	-0.0273
RRIRVRPPRLPRPRPRPKVDPRP	0.0982
RRIRWRPPRLPRPRPRPWHFPRP	-0.265
RRIRPRPPRLPRPRPRPVRAPRP	0.622

Source: the supplement of paper PMC9112550, “Optimization of the antimicrobial peptide Bac7 by deep mutational scanning” (BMC Biology, 2022)
